Measurements taken from patent publication US20060094079A1.

Biological target: Human placental collagen, type III (Sigma) (human) (UniProt P02461)
Assay: cell-based or functional assay

Sequence of UniProt P02461 (P02461 154-1221): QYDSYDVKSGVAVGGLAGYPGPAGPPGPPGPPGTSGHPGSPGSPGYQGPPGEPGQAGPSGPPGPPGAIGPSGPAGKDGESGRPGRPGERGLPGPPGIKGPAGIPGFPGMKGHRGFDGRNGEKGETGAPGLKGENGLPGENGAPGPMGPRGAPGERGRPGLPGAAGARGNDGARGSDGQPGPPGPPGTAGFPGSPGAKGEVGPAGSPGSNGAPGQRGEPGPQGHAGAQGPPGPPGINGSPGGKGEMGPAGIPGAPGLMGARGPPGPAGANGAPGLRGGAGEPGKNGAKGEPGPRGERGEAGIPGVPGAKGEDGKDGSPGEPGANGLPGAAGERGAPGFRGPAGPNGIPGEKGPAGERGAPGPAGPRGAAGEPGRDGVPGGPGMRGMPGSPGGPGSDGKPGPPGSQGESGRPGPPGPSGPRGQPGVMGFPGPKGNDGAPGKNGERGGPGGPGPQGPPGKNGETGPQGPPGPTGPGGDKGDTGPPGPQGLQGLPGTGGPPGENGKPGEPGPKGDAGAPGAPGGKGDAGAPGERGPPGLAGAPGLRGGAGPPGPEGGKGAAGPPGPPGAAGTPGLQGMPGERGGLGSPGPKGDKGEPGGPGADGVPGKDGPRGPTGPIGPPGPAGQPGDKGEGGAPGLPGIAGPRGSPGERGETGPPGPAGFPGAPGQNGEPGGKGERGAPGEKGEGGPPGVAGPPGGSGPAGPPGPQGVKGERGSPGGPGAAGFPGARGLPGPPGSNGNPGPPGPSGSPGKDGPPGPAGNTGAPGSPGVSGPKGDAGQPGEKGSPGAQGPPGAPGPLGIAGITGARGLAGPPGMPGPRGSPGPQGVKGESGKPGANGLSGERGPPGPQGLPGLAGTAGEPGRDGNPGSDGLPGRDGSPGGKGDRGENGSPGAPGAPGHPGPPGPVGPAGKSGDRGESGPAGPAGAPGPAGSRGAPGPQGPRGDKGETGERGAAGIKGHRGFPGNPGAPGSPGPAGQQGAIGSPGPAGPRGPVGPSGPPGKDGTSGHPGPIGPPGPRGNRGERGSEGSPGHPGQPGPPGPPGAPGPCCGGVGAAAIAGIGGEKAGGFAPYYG

platelet binding on collagen type III coated surface pretreated with Saratin, whole human blood under flow (shear rate 1300 s-1): 80%
reduction in platelet deposition on collagen type III coated coverslips at a shear rate of 1300 s-1: 81%
Substance: Saratin (protein isolated from the saliva of the leech Hirudo medicinalis; 103 amino acids)
